Experimental findings from the supplement of paper PMC12764529 are described below.

Data set [1] can be described thus: folding stability dG unfold from chymotrypsin proteolysis; higher = more stable. A digest of the protocol: (§1)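 Designed mini-proteins with no cysteine and under 80 residues were kept only if AlphaFold2 dimer inter-PAE was above 15. In a PA-tagged cDNA display construct, they were digested with trypsin and chymotrypsin and then sequenced. K50 was inferred by Bayesian fitting of counts, and unfolding free energy was derived per protease or combined against a sequence-predicted unfolded-state K50 and a shared folded-state K50.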

Data set [2] is described as follows: folding stability dG unfold from trypsin proteolysis; higher = more stable. Put shortly:
as §1

Data set [3] can be described thus: folding stability dG unfold (combined trypsin and chymotrypsin); higher = more stable. A digest of the protocol:
as §1

± gives the half width of the 95% confidence interval.

As to “SAGEKEFEIVEVKVNKETNEVYFLVRDKEKNRLIKVHSNGTVEIYDLKDPGKKITINMSLEELLALLKKSAG [r5_491_TrROS_Hall]”, the “folding stability dG unfold” value was determined as 4.26 ± 0.19 kcal/mol in data set [1], 2.49 ± 0.16 kcal/mol in data set [2] and 4.08 ± 0.19 kcal/mol in data set [3].

Take “SAGEKIKEALKKAGVEKVEIVEIKRLKNGKVLIVIRLHPDMSEEQRRRLLKALADALREEFPDVKIVELSAG [r5_101_TrROS_Hall]”: the figures for the “folding stability dG unfold” value in data set [1], in data set [2] and in data set [3] were 4.33 ± 0.051 kcal/mol, 4.79 ± 0.13 kcal/mol and 4.5 ± 0.052 kcal/mol, respectively.

On to “SAGEKKEKEKEKKKEEEEKKKKEEEKKKEEEKKKEKTLKLEFTLPDGSKIEIEMTVEELKKLGLSPEELSAG [r5_12_TrROS_Hall]”, for which the “folding stability dG unfold” value was found to be 1.29 ± 0.12 kcal/mol in data set [1], 0.836 ± 0.14 kcal/mol in data set [2] and 1.03 ± 0.42 kcal/mol in data set [3].

Take “SAGEKPEKPPEVTITITSVKVERLPDGTVVVEVEAEIEVDGVTLTVRARFVYRDGKLFLEVEVRLEPLPSAG [r5_267_TrROS_Hall]”: the results for the “folding stability dG unfold” value in data set [1], in data set [2] and in data set [3] were 5.47 ± 0.24 kcal/mol, 3.5 ± 0.19 kcal/mol and 4.59 ± 0.95 kcal/mol, respectively.

Consider “SAGEKVEITLVVKVEKDEDGRYRLTEEELREIAKALGLDFEVKSVEIERVPGYLVIRVTVDGKEYEFLSAGG [r19_398_TrROS_Hall]”, for which the figures for the “folding stability dG unfold” value in data set [1], in data set [2] and in data set [3] were 3.04 ± 0.033 kcal/mol, 2.95 ± 0.089 kcal/mol and 2.98 ± 0.069 kcal/mol, respectively.

Turning to “SAGELAEKLAEELRKLFPNAEVEVEVVEVKEDYVVVKIRLRVVDEETGEEKTVEVELTLVLKPGEILPSAGG [r19_8_TrROS_Hall]”, the “folding stability dG unfold” value in data set [1] was 4.66 ± 0.44 kcal/mol; in data set [2], 3.79 ± 0.14 kcal/mol; in data set [3] it was 4.29 ± 0.3 kcal/mol.

“SAGEVELEVPIEALKKLPNLEGATVRVTVKLNENGELEITIEVEKAPEPPLTEEEKKKLLEEEEKKKKSAGG [r19_313_TrROS_Hall]”: the “folding stability dG unfold” value in data set [1] was 1.31 ± 0.31 kcal/mol; in data set [2] it was -0.203 ± 0.63 kcal/mol; in data set [3], 1.06 ± 0.48 kcal/mol.

Turning to “SAGEVKPGETVTLTIVLSKEELEKLEELAKALPGVEVTEVKVEKLPDGLVRVTITVTKEALEKLKELLESAG [r5_554_TrROS_Hall]”, the “folding stability dG unfold” value in data set [1] was determined as 3.71 ± 0.22 kcal/mol; in data set [2] it was 3.28 ± 0.21 kcal/mol; in data set [3] it was 3.5 ± 0.19 kcal/mol.

Consider “SAGEWYRMSITFDLDPDNRDQLEKIAEKIREKDGFDKIEPVEHDPSNGRVTINVYMPPEAQDKIQEALRSAG [r5_193_TrROS]”, for which the entries for the “folding stability dG unfold” value in data set [1], in data set [2] and in data set [3] were 1.25 ± 0.15 kcal/mol, 0.941 ± 0.1 kcal/mol and 1.27 ± 0.18 kcal/mol, respectively.

Regarding “SAGFGVYKHKYKYDNDDGNPKPKKPEEEPVEPAPPIEPLPIPIRLPDGQPFTFTILSISPKNNNISLNGSAG [r5_735_TrROS]”, the entries for the “folding stability dG unfold” value in data set [1], in data set [2] and in data set [3] were 0.382 ± 0.2 kcal/mol, 0.279 ± 0.22 kcal/mol and 0.452 ± 0.2 kcal/mol, respectively.

For the sequence “SAGFKIDDVETEKDPDGEKEITFRYVDPGDGRPWMLNLRINPNGKLTEENPVPFDDFPPGSYWTIRIKSAGG [r19_393_TrROS]”, the figures for the “folding stability dG unfold” value in data set [1], in data set [2] and in data set [3] were -0.0517 ± 0.41 kcal/mol, 0.636 ± 0.14 kcal/mol and 0.402 ± 0.18 kcal/mol, respectively.

Take “SAGFKIKIEPDKNMPPGQKPMTEEELKKIAKSIAKQMEQDPGNPGKEVKIEIPFYFPDGYWYRIEIEKSAGG [r19_132_TrROS]”: the “folding stability dG unfold” value in data set [1] was found to be 0.647 ± 0.29 kcal/mol; in data set [2] it was 0.259 ± 0.19 kcal/mol; in data set [3], 0.506 ± 0.34 kcal/mol.

As to “SAGFQIERKRDPDGKYEVEIKFPHPDGHPMRVKIPINPKEGKIKIDEIESTNPGHKQRMEELARWFLKASAG [r5_266_TrROS]”, the “folding stability dG unfold” value in data set [1] was -0.526 ± 0.38 kcal/mol; in data set [2], -0.4 ± 0.29 kcal/mol; in data set [3], -0.44 ± 0.16 kcal/mol.

Consider “SAGFSVEVTYNPPTGYLEIRFYNPPPNKPLKKETLEEIARKLLEELGIEGEIVEIKEEGNVYTIKVKIPSAG [r14_556_TrMRF]”, for which the results for the “folding stability dG unfold” value in data set [1], in data set [2] and in data set [3] were 4.65 ± 0.068 kcal/mol, 4.56 ± 0.19 kcal/mol and 4.62 ± 0.084 kcal/mol, respectively.

Regarding “SAGFTIEIENEDGKKITFRFPGWKIEIYPKDGIIMMRYPEENMSIMIKVDPNKIKIQVYDGGKWRWFPISAG [r5_786_TrROS]”, the figures for the “folding stability dG unfold” value in data set [1], in data set [2] and in data set [3] were 3.92 ± 0.08 kcal/mol, 2.86 ± 0.13 kcal/mol and 3.69 ± 0.47 kcal/mol, respectively.

As to “SAGFWIRIDPKNPRIYISGMPPGMIELIAENAGAPDVTPVKPGRPWWDARDNHPDPDAVIPIPPENMMSAGG [r19_270_TrROS]”, the “folding stability dG unfold” value was -0.39 ± 0.39 kcal/mol in data set [1], 0.319 ± 0.16 kcal/mol in data set [2] and 0.0233 ± 0.24 kcal/mol in data set [3].

With “SAGGAEEIRKELGISPEEKVTVKLVVPEGGRPREFTVEMKPDELEKVLEELGVPPEKLEITEVEVIEESAGG [r13_681_JUSTAS]”, the “folding stability dG unfold” value in data set [1] was -0.121 ± 0.21 kcal/mol; in data set [2], -1.39 ± 0.38 kcal/mol; in data set [3], -0.456 ± 0.21 kcal/mol.

Regarding “SAGGAEELAKALADELRKLFPGEEIEVTVELVEVEVEPGQKVTLPDGSTVEVPPGAKVLVLKITVKPSAGGS [r16_357_TrROS_Hall]”, the “folding stability dG unfold” value in data set [1] was 3.56 ± 0.13 kcal/mol; in data set [2], 3.13 ± 0.16 kcal/mol; in data set [3] it was 3.44 ± 0.14 kcal/mol.

With “SAGGAEVDPETKVVHIRIRARSAEELLAAIEALPADEVIIEVYNEETGKTERIRLSREELRKLLEEASAGGS [r16_797_TrROS_Hall]”, the figures for the “folding stability dG unfold” value in data set [1], in data set [2] and in data set [3] were 2.82 ± 0.018 kcal/mol, 1.92 ± 0.021 kcal/mol and 2.54 ± 0.031 kcal/mol, respectively.

“SAGGAFEMSNEYWFPDGFRVKLKVEVYPNGMFMLDLEIEPIPPPPPIKIEKDPDGEYKYDPNGQPQKDSAGG [r13_151_TrROS]”: the “folding stability dG unfold” value in data set [1] stood at 3.36 ± 0.18 kcal/mol; in data set [2], 2.58 ± 0.18 kcal/mol; in data set [3], 2.91 ± 0.38 kcal/mol.

As to “SAGGAFIKDFDVEEDPNGHRKFKFELPNGWKYDITIHPDFPQIEIKPIKPIEPPPIPADDPEQAEEQSAGGS [r16_482_TrROS]”, the “folding stability dG unfold” value was found to be 0.429 ± 0.47 kcal/mol in data set [1], 0.699 ± 0.11 kcal/mol in data set [2] and 0.552 ± 0.37 kcal/mol in data set [3].

For the sequence “SAGGAGPEKAEELARALAAELEEEGREWRFKITYSAEPEILSIDVYPLSEPLVDDAKPGYRTLYYDAPSAGG [r13_693_TrMRF]”, the results for the “folding stability dG unfold” value in data set [1], in data set [2] and in data set [3] were 1.19 ± 0.29 kcal/mol, 0.659 ± 0.093 kcal/mol and 0.957 ± 0.12 kcal/mol, respectively.

For “SAGGALDAIKNIAEKFGFPEIEDIDIDPDNGWLSFRFRGPEPVYIKIPWKPDKNGNLPVNIEVYPMDDSAGG [r13_410_TrROS]”, the results for the “folding stability dG unfold” value in data set [1], in data set [2] and in data set [3] were 1.88 ± 0.11 kcal/mol, 1.48 ± 0.041 kcal/mol and 1.65 ± 0.13 kcal/mol, respectively.

For “SAGGALEKILEAIENAPTSVPEVTVEIELPTGTLKATITNKGKPVLITIELTHPDGSKSTITLTFSLSAGGS [r16_642_TrMRF]”, the results for the “folding stability dG unfold” value in data set [1], in data set [2] and in data set [3] were 4.28 ± 0.079 kcal/mol, 2.78 ± 0.091 kcal/mol and 3.78 ± 0.063 kcal/mol, respectively.

For the sequence “SAGGAMPVELVETLEEIPGKGIVLRKFRDPLSDKWFLATVPVETLPNGEKKYLIELNIDGSGMTLELGSAGG [r13_993_JUSTAS]”, the “folding stability dG unfold” value was determined as 0.11 ± 0.22 kcal/mol in data set [1], 0.0151 ± 0.099 kcal/mol in data set [2] and 0.173 ± 0.17 kcal/mol in data set [3].

Consider “SAGGAPVSVSTSTLPDGRTVTTTTYPSGSTTTTITDPVTGATATASSPGSGTTTFTDPATGATTVVGSAGGS [r16_91_JUSTAS]”, for which the “folding stability dG unfold” value in data set [1] amounted to 0.635 ± 0.029 kcal/mol; in data set [2], 1.36 ± 0.053 kcal/mol; in data set [3], 1.02 ± 0.065 kcal/mol.

On to “SAGGAPVTTFSLTLENPETGLNWTSTSATYDPATGTLTLNLKRPQSGESLTLTTPVTVVSPEEPELASAGGS [r8_193_JUSTAS]”, for which the “folding stability dG unfold” value in data set [1] was determined as 0.819 ± 0.084 kcal/mol; in data set [2], 0.699 ± 0.052 kcal/mol; in data set [3], 0.813 ± 0.11 kcal/mol.

Regarding “SAGGARVFEVTFPDGSRARIVLLPDGTLLLETDSLDNLVALLEALGVELVSIRRHPDGRVLAVARLPPSAGG [r19_257_TrMRF]”, the “folding stability dG unfold” value in data set [1] was 4.32 ± 0.14 kcal/mol; in data set [2] it was 4.49 ± 0.14 kcal/mol; in data set [3], 4.43 ± 0.082 kcal/mol.

“SAGGASFSLSEGYDPSLGKTFTRETEAPEVPVPPVTVVPLSEIGRLKAEGVPPSWTVDPETGTVTVTSAGGS [r16_194_JUSTAS]”: the “folding stability dG unfold” value in data set [1] was 0.564 ± 0.072 kcal/mol; in data set [2] it was -0.647 ± 0.19 kcal/mol; in data set [3] it was 0.258 ± 0.059 kcal/mol.

For “SAGGATFAPGQTITVTVTVTLADGSTVTVTATVRIEVRAAPAPPVTVTNADGSTRTFTSAEEARAAASAGGS [r16_580_TrROS_Hall]”, the “folding stability dG unfold” value in data set [1] was found to be 0.211 ± 0.25 kcal/mol; in data set [2], 1.46 ± 0.033 kcal/mol; in data set [3], 1.01 ± 0.098 kcal/mol.

As for “SAGGATIELEAEEHPETKKITIYVKSENPILTIEKIAKELKEKEDDIELTLVNEDGVPYTIKLEDLISAGGS [r8_236_TrMRF]”, the figures for the “folding stability dG unfold” value in data set [1], in data set [2] and in data set [3] were 0.38 ± 0.2 kcal/mol, -0.957 ± 0.47 kcal/mol and 0.217 ± 0.3 kcal/mol, respectively.

In the case of “SAGGATIELEVLLEDGTLVRVRAELDEDGRLVSVEVEVRRLEPPPPPPPPERTETRVETRTEYRPEESAGGS [r8_270_TrROS_Hall]”, the “folding stability dG unfold” value came to 3.23 ± 0.52 kcal/mol in data set [1], 2.73 ± 0.35 kcal/mol in data set [2] and 2.95 ± 0.48 kcal/mol in data set [3].

For “SAGGATITVEPAPGDSVVALAEFGDSLALVTFYPKEATAKVTVFGPNGIPSTATFTIKPGEELVITGSAGGS [r8_11_TrMRF]”, the “folding stability dG unfold” value is 1.59 ± 0.096 kcal/mol in data set [1], 1.25 ± 0.079 kcal/mol in data set [2] and 1.47 ± 0.13 kcal/mol in data set [3].

As for “SAGGATLTLKPGDEITLTLTVTVTVTNEDGSTSTFTTTVTLTLRIEPAPPPPPVTVERDADGNLRVTLSAGG [r13_401_TrROS_Hall]”, the “folding stability dG unfold” value in data set [1] is 2.46 ± 0.091 kcal/mol; in data set [2], 2.35 ± 0.089 kcal/mol; in data set [3], 2.48 ± 0.18 kcal/mol.

Turning to “SAGGATPLPDGGYRLTYTVKLSPSESVEDAPKAAAALAEKYGVTPVAITVDPSTGTVTIDILLPPEVRSAGG [r13_178_JUSTAS]”, the “folding stability dG unfold” value in data set [1] is 1.68 ± 0.11 kcal/mol; in data set [2], 1.01 ± 0.046 kcal/mol; in data set [3] it was 1.44 ± 0.095 kcal/mol.
